In PMC5472440:

Legend:
hIno80CTD (human) [1] = test: EMSA; conditions: Kd apparent, 50 nM DNA, MST: 25 mM HEPES pH 8.0, 50 mM NaCl, 1 mM TCEP, 10% glycerol, 0.01% Tween-20, 0.1 mg/mL BSA, 25 C, EMSA: 25 mM HEPES pH 8.0, 50 mM NaCl, 0.5 mM …
hIno80CTD (human) [2] = test: MST; conditions: Hill coefficient 1.8 +/- 0.2, MST: 25 mM HEPES pH 8.0, 50 mM NaCl, 1 mM TCEP, 10% glycerol, 0.01% Tween-20, 0.1 mg/mL BSA, 25 C, EMSA: 25 mM HEPES pH 8.0, 50 mM NaCl, 0.5 mM …

Work on 50 bp duplex DNA yielded a Kd (hIno80CTD (human) [1]) of 1 µM and a K half (hIno80CTD (human) [2]) of 1000 nM.
